The source of these data is patent US20250043019A1 (Janssen / Centocor, published 2025).

The target in test [1] is T1, human CD79b on the cell surface (human, UniProt P40259 29-229).
T1 sequence: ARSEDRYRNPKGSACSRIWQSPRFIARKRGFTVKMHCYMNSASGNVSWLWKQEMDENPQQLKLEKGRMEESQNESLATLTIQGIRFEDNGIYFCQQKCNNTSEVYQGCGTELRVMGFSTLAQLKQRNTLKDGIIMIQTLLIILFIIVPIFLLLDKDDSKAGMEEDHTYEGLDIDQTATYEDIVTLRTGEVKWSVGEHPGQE
Briefly: cell-based or functional assay.

In test [2] the target is T1, human CD79b on the cell surface. Briefly: cell-based or functional assay. The source holds these as a separate data set.
For test [3], the target named is T2, human CD20 on the cell surface (human, UniProt P11836 1-297).
T2 sequence (looked up): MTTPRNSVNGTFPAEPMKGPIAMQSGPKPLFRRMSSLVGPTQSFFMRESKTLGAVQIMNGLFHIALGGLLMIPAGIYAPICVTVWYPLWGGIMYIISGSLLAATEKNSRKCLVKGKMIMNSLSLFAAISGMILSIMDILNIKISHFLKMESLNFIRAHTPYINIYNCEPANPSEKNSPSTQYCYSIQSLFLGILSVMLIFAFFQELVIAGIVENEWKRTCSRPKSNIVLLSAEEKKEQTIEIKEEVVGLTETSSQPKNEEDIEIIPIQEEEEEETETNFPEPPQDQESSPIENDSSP
In words: cell-based or functional assay.

In test [4] the target is T1, human CD79b on the cell surface. Briefly: cell-based or functional assay. This is another data set of the same source.
For test [5] the target is unchanged. Briefly: cell-based or functional assay. The source holds these as a separate data set.
For test [6] the target is unchanged. Briefly: cell-based or functional assay. The source holds these as a separate data set.
The target is the same in test [7]. Briefly: cell-based or functional assay. This is another data set of the same source.
Test [8] shares this target. In words: flow cytometry, HBL-1 cells, 1 h 37 C. Here is the method:
(§1) All cells were washed with BD stain buffer (BD Biosciences; Cat #554657), centrifuged at 1200 RPM for 3 minutes, with supernatant discarded. Cells were then stained for 20 minutes at 4° C. with BD stain buffer containing AlexaFluor 647 labeled anti-human IgG secondary antibody (Jackson Immuno; Cat #109-606-098) at a 1:200 dilution along with Aqua Fixable Live/Dead stain (Invitrogen; Cat #L34957) at a 1:400 dilution. All cells were washed with BD stain buffer (BD Biosciences; Cat #554657), centrifuged at 1200 RPM for 3 mins, with supernatant discarded. Cells were analyzed using Intellicyt (Sartorius) flow cytometer and mean fluorescent intensity (MFI) was generated using Forcyt software (Sartorius). MFI was graphed and EC50 values generated using GraphPad PRISM v.8. Dose response curves were generated by transforming the x axis values using the formula […]. Data was then graphed using non-linear regression curve fit analysis “log(agonist) vs. response-variable slope (four parameter)”.

The target is the same in test [9]. In words: flow cytometry, Carnaval cells, 1 h 37 C. Here is the method: as §1
In general terms: Flow cytometry measures light scatter and fluorescence of single cells or particles in a stream.

For test [10], the target named is T3, cynomolgus monkey CD79b antigen (cynomolgus monkey).
T3 construct: also called cyno CD79b; CD9W1.001
Briefly: SPR Biacore 8k, cyno CD79b injected up to 3000 nM. Here is the method:
(§2) General Protocol for SPR Affinity Assessment: Affinity assessment of the bispecific trispecific constructs against human CD79b were measure using recombinantly expressed extracellular domain of CD79b short and long isoforms (CD9W7.001 and CD9W8.001, respectively) by Surface Plasmon Resonance (SPR) using a Biacore 8k SPR system (Biacore) at 25° C. in HBSP+ buffer. Cross-reactivity of the same antibody panel was also assessed against cyno and mouse antigens (CD9W1.001 and CD9W105.001, respectively). Briefly, a C1 sensor chip was immobilized with anti-human Fc (target immobilization levels of >400 RU) using vendor recommended amino coupling protocol. […] The association and dissociation phases were measured for 2 or 3 minutes and 30 minutes, respectively.
(§3) The raw binding sensorgrams were processed using Biacore Insight software (Biacore) by double-referencing and the processed sensorgrams were analyzed for cross-reactivity and fitted to a 1:1 Langmuir model to obtain on-rates, off-rates and affinities.
In general terms: Surface plasmon resonance follows binding to a sensor surface in real time, without labels.

The target in test [11] is T4, recombinant extracellular domain of human CD79b, short isoform (human, UniProt P40259 29-159).
T4 chain: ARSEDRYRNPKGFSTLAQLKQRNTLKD
Briefly: SPR Biacore 8k, antibody captured by anti-Fc, 25 C. As for the experimental part: as §2, §3

Test [12] has as its target T5, recombinant extracellular domain of human CD79b, long isoform (human, UniProt P40259 29-159).
T5 construct: also called hu CD79b long
T5 sequence: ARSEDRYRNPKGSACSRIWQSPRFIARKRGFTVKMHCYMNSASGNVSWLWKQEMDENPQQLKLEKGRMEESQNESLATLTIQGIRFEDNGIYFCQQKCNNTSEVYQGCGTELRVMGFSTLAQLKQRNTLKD
Briefly: SPR Biacore 8k, antibody captured by anti-Fc, 25 C. As for the experimental part: as §2, §3

For test [13], the target named is T1, human CD79b on the cell surface. In words: flow cytometry, HBL-1 cells, 1 h 37 C; control row of Table 10, same value as Table 8. As for the experimental part:
as §1

Test [14] shares this target. In words: flow cytometry, Carnaval cells, 1 h 37 C; control row of Table 10, same value as Table 8. Here is the method: as §1

A value given as a limit tells only on which side of the number the result lay.

B1: C923B169 CD79bxCD20xCD3 trispecific antibody (CD9B374 Fab x C20B648 LH scFv x CD3B2030 N106A LH scFv) (other)
heavy: QVQLQESGPGLVKPSETLSLTCSVSGASISSFYWSWIRQPADEGLEWIGRISPSGKTNYIPSLKSRIIMSLDASKNQFSLRLNSVTAADTAMYYCARGEYSGTYSYSFDVWGQGTMVTVSSASTKGPSVFPLAPSSKSTSGGTAALGCLVKDYFPEPVTVSWNSGALTSGVHTFPAVLQSSGLYSLSSVVTVPSSSLGTQTYICNVNHKPSNTKVDKKVEPKSCDKTHTCPPCPAPEAAGGPSVFLFPPKPKDTLMISRTPEVTCVVVSVSHEDPEVKFNWYVDGVEVHNAKTKPREEQYNSTYRVVSVLTVLHQDWLNGKEYKCKVSNKALPAPIEKTISKAKGQPREPQVYTLPPSREEMTKNQVSLSCAVKGFYPSDIAVEWESNGQPENNYKTTPPVLDSDGSFFLVSKLTVDKSRWQQGNVFSCSVMHEALHNRFTQKSLSLSPGK
light: DIVMTQSPLSLSVTPGEPASISCRSSESLLDSEDGNTYLDWFLQKPGQSPQLLIYTLSYRASGVPDRFSGSGSDTDFTLHISSLEAEDVGLYYCMQRMEFPLTFGQGTKVEIKRTVAAPSVFIFPPSDEQLKSGTASVVCLLNNFYPREAKVQWKVDNALQSGNSQESVTEQDSKDSTYSLSSTLTLSKADYEKHKVYACEVTHQGLSSPVTKSFNRGEC
chain: EIVLTQSPATLSASPGERVTLSCSASSSVSYMNWYQQKPGQAPRRWIYDSSKLASGVPARFSGSGSGRDYTLTISSLEPEDFAVYYCQQWSRNPPTFGGGTKVEIKGGSEGKSSGSGSESKSTGGSQVQLVQSGAEVKKPGSSVKVSCKASGYTFTRSTMHWVKQAPGQGLEWIGYINPSSAYTNYNQKFQGRVTLTADKSTSTAYMELSSLRSEDTAVYYCASPQVHYDYAGFPYWGQGTLVTVSSEPKSSDKTHTCPPCPAPEAAGGPSVFLFPPKPKDTLMISRTPEVTCVVVSVSHEDPEVKFNWYVDGVEVHNAKTKPREEQYNSTYRVVSVLTVLHQDWLNGKEYKCKVSNKALPAPIEKTISKAKGQPREPQVYTLPPSREEMTKNQVSLWCLVKGFYPSDIAVEWESNGQPENNYKTTPPVLDSDGSFFLYSKLTVDKSRWQQGNVFSCSVMHEALHNHYTQKSLSLSPGKGGGGSGGGGSGGGGSGGGGSEIVLTQSPATLSLSPGERATLSCRASLSVSSMHWYQQKPGQAPRLLIYATSNLASGIPARFSGSGSGTDFTLTISSLEPEDFAVYYCQQWIFNPPTFGGGTKVEIKGGSEGKSSGSGSESKSTGGSQVQLVQSGAEVKKPGSSVKVSCKASGYTFSSYNMHWVRQAPGQGLEWMGAIYPGAGDTSYAQKFQGRVTITADESTSTAYMELSSLRSEDTAVYYCARSNYYGSSGWYFDVWGKGTTVTVSS
For B1, the “EC50, decrease of IL-10 secretion by CD79b mutant OCI-Ly10 cells (MSD assay)” value in test [1] is 15.4 nM. In addition, in [2], the “EC50, long-term Incucyte cytotoxicity, K562 CD79b” value turned out to be 1.04 nM. For the same molecule, in [3], the “EC50, long-term Incucyte cytotoxicity, K562 CD20” value is 4.08 nM.

B2: 79C3B651 CD79bxCD3 bispecific antibody (bispecific antibody, human IgG1, kappa, L234A L235A)
heavy: QVQLQESGPGLVKPSQTLSLTCTVSGVSISNYYWSWIRQPPGKGLEWIGRISPSGRTNYNPSLKSRVTMSLDASKNQFSLKLSSVTAADTAVYYCARGEYSGTYSYSFDIWGQGTMVTVSSASTKGPSVFPLAPSSKSTSGGTAALGCLVKDYFPEPVTVSWNSGALTSGVHTFPAVLQSSGLYSLSSVVTVPSSSLGTQTYICNVNHKPSNTKVDKKVEPKSCDKTHTCPPCPAPEAAGGPSVFLFPPKPKDTLMISRTPEVTCVVVSVSHEDPEVKFNWYVDGVEVHNAKTKPREEQYNSTYRVVSVLTVLHQDWLNGKEYKCKVSNKALPAPIEKTISKAKGQPREPQVYTLPPSREEMTKNQVSLSCAVKGFYPSDIAVEWESNGQPENNYKTTPPVLDSDGSFFLVSKLTVDKSRWQQGNVFSCSVMHEALHNRFTQKSLSLSPGK
light: DIQMTQSPSSLSASVGDRVTITCRSSQSLFDSDDGNTYLDWFQQKPGQSPKLLIQTLSYRASGVPSRFSGSGSGTDFTLTISSLQPEDFATYYCMQRMEFPLTFGGGTKVEIKRTVAAPSVFIFPPSDEQLKSGTASVVCLLNNFYPREAKVQWKVDNALQSGNSQESVTEQDSKDSTYSLSSTLTLSKADYEKHKVYACEVTHQGLSSPVTKSFNRGEC
chain: EIVLTQSPATLSASPGERVTLSCSASSSVSYMNWYQQKPGQAPRRWIYDSSKLASGVPARFSGSGSGRDYTLTISSLEPEDFAVYYCQQWSRNPPTFGGGTKVEIKGGSEGKSSGSGSESKSTGGSQVQLVQSGAEVKKPGSSVKVSCKASGYTFTRSTMHWVKQAPGQGLEWIGYINPSSAYTNYNQKFQGRVTLTADKSTSTAYMELSSLRSEDTAVYYCASPQVHYDYAGFPYWGQGTLVTVSSEPKSSDKTHTCPPCPAPEAAGGPSVFLFPPKPKDTLMISRTPEVTCVVVSVSHEDPEVKFNWYVDGVEVHNAKTKPREEQYNSTYRVVSVLTVLHQDWLNGKEYKCKVSNKALPAPIEKTISKAKGQPREPQVYTLPPSREEMTKNQVSLWCLVKGFYPSDIAVEWESNGQPENNYKTTPPVLDSDGSFFLYSKLTVDKSRWQQGNVFSCSVMHEALHNHYTQKSLSLSPGK
notes: IgG1 bispecific; CD79b Fab arm plus CD3 scFv-Fc arm; also called 79C3B651 bsAb; CD9B643 x CD3B2030-N106A
What is called EC50 is the concentration giving half of the maximal effect. Usually Kd stands for the free concentration of one partner at which half of the binding sites on the other are occupied at equilibrium, for simple one-to-one binding. On to B2, for which, in [4], the “IC50, T-cell killing of HBL-1 (Incucyte)” value is 0.0325 nM. Besides, the “IC50, T-cell killing of OCI-Ly10 (Incucyte)” value in test [5] is 4.7 nM. Besides, in test [6], the “IC50, CARNAVAL killing, 72 h (FACS)” value is 0.25 nM; the “IC50, HBL-1 killing, 72 h (FACS)” value is 2.2 nM; the “IC50, OCI-LY10 killing, 72 h (FACS)” value is > 100 nM. In test [7], the “Cmax (maximum cytotoxicity), donor 1” value was 5%; the “Cmax (maximum cytotoxicity), donor 2” value was 13%; the “Cmax (maximum cytotoxicity), donor 3” value worked out at 34%; the “EC50, autologous B-cell depletion, donor 3” value is 17 nM. In test [8], the EC50 came out at 15 nM. This molecule also registered an EC50 in [9] of 12 nM. Moreover, in test [10], the Kd was > 3000 nM. In [11], the Kd stood at 0.35 nM. In test [12], the Kd turned out to be 0.052 nM. The molecule further had an EC50 in [13] of 15 nM. Further, the EC50 in test [14] was found to be 12 nM.
